Measurements: the nanobody polyreactivity screen of Harvey et al. (2022)

Assay: yeast display, Sf9 membrane polyspecificity reagent, FACS + sequencing; frameworks hold sequencing errors
How it was run: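 A nanobody's polyreactivity label depends on the gate it was sorted from. Yeast display cells were stained with 10% biotinylated, detergent-solubilized Sf9 membrane reagent for 1 hour at 4 °C, enriched on streptavidin microbeads and sorted by FACS. The low and high (top ~1%) gates were set on anti-HA fluorescence for expression and streptavidin fluorescence for reagent binding.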

Sequence	polyreactivity (PSR sort gate)
QVQLVESGGGLVQAGGSLRLSCAASGSLFTGYAMGWYRQAPGKERELVAAISSSGSTTYYADSVKGRFTISRDNAKNTVYLQMNSLKPEDTAVYYCATRVNYGYYYWGQGSQVTVSS	high polyreactivity
QVQLVESGGGLVQAGGSLRLSCAASGSIFGRNAMGGYRQAPGSERELVARISSRGGSTYYADSVKGRFTISRDNAKNTVDLQMNSLKPEDTAVYYCNRDRTSQTNDYWGQGTQVTVSS	high polyreactivity
QVQLVESGGGLVQAGGSLRLSCAASVSNFPPYVMGWYRQAPGKERELVAAITWSSGSTYYADSVKGRFTISRDNAKNTVYLQMNRLKPEDTAVYYCAAVLPFKYDYWGQGTQVTVSS	low polyreactivity
QVQLVESGGGLVQAGGSLRLSCAASGRTLVSYAMGWYRQAPGKERELVATISWSGGSTYYADSVKGRFTISRDNAKNTVYLQMYSLKPEDTAVYYCNRSLTGYDELGYPVPYTYDYWGQATQVTVSS	low polyreactivity
QVQLVESGGGLVQAGGSLRLSCAASGRTFTINAMGWYRQAPGKERELVAAITSGGSTNYADSVKGRFTISRDNAKNTVYLQMNSLKPEDTAVYYCNAGYYSRRYYFSGRLDYWGQGTQVTVSS	low polyreactivity
QVQLVESGGGLVQAGGSLRLSSAASGSTFLYYAMGWYRQAPGKERELVATITDGGSTNYADSVKGRFTISRDNAKNTVYLQMNSLKPEDTAVYYCATDSYHYSYGYSSLPEYDYWGQGTQVTVSS	low polyreactivity
QVQLVESRGGLVQAGGSLRLSCAASGRIFGSYAMGWYRQAPGKERVLVAAISYSGGSTYYADSVKGRFTISRDNAKNTVYLQMNSLKPEDTAVYYSNVDRYYGYFSVRGGYWGQGTQVTVSS	low polyreactivity
QVQLVETGGGLVQAGGSLRLSCAASGITFFAYAMGWYRQAPGKERELVAAISTGGSTNYADSVKGRFTISRDNAKNTVYLQMNSLKPEDTAVYYCGSDRSDLAEEGYAGYDYWGQVTQVTVSS	low polyreactivity
QGQLVESGGGLVQAGGSLRLSCAASGFTFAPNAMAWYRQAPGKERELVAAISSASSTYYADSLKGRFTISRDNAKNTVYLQMNSLKPEDTAVYYCAAREGWGFYYWGQGTQVTVSS	high polyreactivity
QVQLVESGGGLVQAGGSLRLSCAASGIIFTYAMGWYRPAPGKERELVAAIDWRGGRTYYADSVKGRFTISRDNAKNTVYLQMNSLKPEDTSVYYCGARLPGGTYYWGQGTQVTVSS	high polyreactivity
QVQLVESGGGLVQAGGSLRLSCAASGLTFYEYAMGWYRQAPGKERELVAAISWRGDSTHYADSVKGRFTISRDNAKNTVYLQMNSLKPEDTAVYYCNTRRLHGWLYGYEYWGQGTQVTVSS	low polyreactivity
QVQLVESGGGLVQAGGSLRLSCAASGRTFGRYAMGWYRQAPGKEREFVASISRRGGSTNYADSVKGRFTISRDNAKNTVYLQMNSLKPEDTAVYYCAKRFTLPLSEYDYWGQGTQVTVSS	high polyreactivity
QVQLVESGGGLVQAGGSLRLSCAASGRIFYYNAMGWYRPAPGKVRELVAVMTGGGSTNYADSVKGRFTISRDNAKNTVYLQMNSLKPEDTAVYYCAARRAWGTKYHGYDYWGQGTQVTVSS	low polyreactivity
QVQLVESGGGLVQAGGILRLSCAASGFTFSDNAMGWYIQAPGKERELVAAISRSGGRTYYADSVKGRFTISRDNAKNTVYLQMNSLKPEDTAVYYCAAYQYGMDYWGQGSQVTVSS	high polyreactivity
QVQLVESGGGLVQAGGSLRLSCAASGRIFKYNAMGWYRQAPGKERELVAAIRRSGGSTYYADSVKGRFTISRDNAKNPVYLQMNSLNPEDTAVYYCAATGYVGGIYGHYPRGYWGQGTQVTVSS	high polyreactivity
QVQLVESGGGLVQAGASLRLSCAASGSTFDRNVMGWYRQAPGKERELVAAISRVSSTNYADSVKGRFTISRDNAKNTVYLQMNSLKPEDTAVYYCAADRAGSIMNYWGQGTQVTVSS	low polyreactivity
QVQLVESGGGIVQAGGSLRLSCAASGIIFRAYAMGWSRQAPGKERELVAAISWSGGSTYYADSVKGRFTISRDNAKYTVYLQMNSLNPEDTAVYYCAAESLVYDFDYWGQGTQVTVSS	high polyreactivity
QVQLVESGGGLVQAGGSLRLSCAASGFTFRYNAMGWYRQAPGKERELVAAISRSGGRTYYADSVKGRFTISRDNAKNTVYLQMNSLKPEDTAVYYCAAVAARITGYGYWGQGTQVTVSS	high polyreactivity
QVQLVESGGGIVQAGGSLRLSCAASGRLFYYYAMGWDRQAPGTERELVAVISRGVITYYADSVKGRFTISRDTAKNTVYLQMNSLKPEDTAVYYCAVSYPHYIYSYGYWGQGTQVTVSS	high polyreactivity
QVQLVESGGGLVQAGGSLRLICAASGSIFFGNAMGWYRQAPGKERELDAAITLRGGSTYYADSVKGRFTISRDNAKNTVYLQMNSLKPEDTAVYYCNAVSKRYGYGYWGQGTQVTVSS	high polyreactivity
QVQLVESGGGLVQAGGSLRLSCAASGLTFGDYTMGWYRQAPGKERELVAAITWSGASTYYADSVKGRFTISRDNAKNTVYLQMNSLKPEDTAVYYCADERTPSYRAYDYWGQGTKVTVSS	low polyreactivity
QVQLVESGGGLVQAGGSLRLSCAASGFTFYGYTMGWYRQAPGKERELVAAISRSGGRTYYADSVKGRFTISRDNAKNTVYLQMNSLKPEDTAVYYCAGDSRTNGYDYWGQGTQVTVSS	high polyreactivity
